In article PMC3408474, “Constitutive Phosphorylation of Interferon Receptor A-Associated Signaling Proteins in Systemic Lupus Erythematosus” (PLoS ONE, 2012):

Legend:
[1] = biological target: T1, IFNAR1 chain of the type I interferon receptor (IFNAR) (human (endogenous in PBMC), UniProt P17181 28-557); assay: co-IP; lysates (50 µg total protein) of PBMC from SLE patients or healthy controls, cultured in medium alone or with 50 U/ml IFNβ for 0, 30 min, 1 h and 4 h; incubated overnight at 4°C with mouse anti-IFNAR1 (protein A-Sepharose 4B) and/or rabbit anti-IFNAR2 (protein G-Sepharose 4B); blotted for SOCS1, STAT2, Jak1 and Tyk2; conditions: partners not purified
T1 construct: IFNAR1 chain of the human type I interferon receptor, endogenous in peripheral blood mononuclear cells; precipitated with mouse anti-IFNAR1 and protein A-Sepharose; source: endogenous, lysate of PBMC from SLE patients or healthy controls
T1 sequence (looked up): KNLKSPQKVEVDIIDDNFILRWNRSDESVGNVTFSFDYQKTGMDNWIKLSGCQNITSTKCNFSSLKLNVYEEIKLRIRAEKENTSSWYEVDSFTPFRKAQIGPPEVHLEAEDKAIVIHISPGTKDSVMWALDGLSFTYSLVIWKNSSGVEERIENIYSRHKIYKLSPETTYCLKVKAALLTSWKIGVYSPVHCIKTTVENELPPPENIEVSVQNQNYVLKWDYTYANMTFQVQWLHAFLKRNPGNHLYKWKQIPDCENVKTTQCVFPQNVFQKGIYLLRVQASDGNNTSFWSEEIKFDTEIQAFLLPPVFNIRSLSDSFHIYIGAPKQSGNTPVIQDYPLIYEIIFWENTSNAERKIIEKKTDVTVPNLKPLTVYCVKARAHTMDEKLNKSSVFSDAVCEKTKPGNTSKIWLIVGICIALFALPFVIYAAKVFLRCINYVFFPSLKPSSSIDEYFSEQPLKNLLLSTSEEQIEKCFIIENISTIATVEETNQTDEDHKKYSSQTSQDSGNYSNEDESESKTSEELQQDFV

[2] = biological target: T2, IFNAR2 chain of the type I interferon receptor (IFNAR) (human (endogenous in PBMC), UniProt P48551 27-515); assay: as above; conditions: partners not purified
T2 construct: IFNAR2 chain of the human type I interferon receptor, endogenous in peripheral blood mononuclear cells; precipitated with rabbit anti-IFNAR2 and protein G-Sepharose; source: endogenous, lysate of PBMC from SLE patients or healthy controls
T2 sequence (looked up): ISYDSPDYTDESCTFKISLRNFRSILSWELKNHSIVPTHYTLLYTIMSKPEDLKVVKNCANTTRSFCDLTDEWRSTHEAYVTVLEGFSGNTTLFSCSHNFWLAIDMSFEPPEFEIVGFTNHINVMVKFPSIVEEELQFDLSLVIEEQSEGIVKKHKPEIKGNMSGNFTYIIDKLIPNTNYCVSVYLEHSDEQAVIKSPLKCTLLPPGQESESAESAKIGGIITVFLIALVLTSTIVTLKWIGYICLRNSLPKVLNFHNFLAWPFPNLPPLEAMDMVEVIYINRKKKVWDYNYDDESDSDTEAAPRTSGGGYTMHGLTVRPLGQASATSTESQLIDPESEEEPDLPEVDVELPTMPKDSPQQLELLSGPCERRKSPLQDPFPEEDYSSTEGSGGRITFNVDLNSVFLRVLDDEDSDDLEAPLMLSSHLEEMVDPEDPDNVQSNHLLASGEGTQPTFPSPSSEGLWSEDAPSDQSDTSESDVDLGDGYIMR

fold increase of association one hour after IFNβ over unstimulated cells [1]: < 1 fold
fold increase of association one hour after IFNβ over unstimulated cells [2]: ~6 fold
B1: suppressor of cytokine signaling 1 (SOCS1) (natural protein, human (endogenous in PBMC), UniProt O15524 1-211, looked up)
chain: MVAHNQVAADNAVSTAAEPRRRPEPSSSSSSSPAAPARPRPCPAVPAPAPGDTHFRTFRSHADYRRITRASALLDACGFYWGPLSVHGAHERLRAEPVGTFLVRDSRQRNCFFALSVKMASGPTSIRVHFQAGRFHLDGSRESFDCLFELLEHYVAAPRRMLGAPLRQRRVRPLQELCRQRIVATVGRENLARIPLNPVLRDYLSSFPFQI
notes: SOCS1, endogenous in human peripheral blood mononuclear cells; detected by blot with anti-SOCS1; source: endogenous, lysate of PBMC from SLE patients or healthy controls
